How the values were obtained:
HeLa Kyoto [1] = test: solubility change mitosis vs G1/S (difference of NP-40 vs SDS log2 ratios) (log2 ratio difference); higher = more soluble in mitosis
HeLa Kyoto [2] = test: solubility in G1/S (NP-40 vs SDS abundance) (log2 ratio); higher = more soluble; settings: cell cycle stage: G1/S
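For solubility change mitosis vs G1/S (difference of NP-40 vs SDS log2 ratios) in this document: synchronized HeLa Kyoto cells (double thymidine block for G1/S, nocodazole release for mitosis), protein amounts in NP-40 versus SDS lysates quantified by mass spectrometry, three biological replicates.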
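For solubility in G1/S (NP-40 vs SDS abundance) in this document: HeLa Kyoto cells arrested at G1/S by double thymidine block, proteins quantified by TMT10plex mass spectrometry in mild NP-40 versus SDS extracts, three biological replicates.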

Sequence of NCOA2 (chain, as listed by the source): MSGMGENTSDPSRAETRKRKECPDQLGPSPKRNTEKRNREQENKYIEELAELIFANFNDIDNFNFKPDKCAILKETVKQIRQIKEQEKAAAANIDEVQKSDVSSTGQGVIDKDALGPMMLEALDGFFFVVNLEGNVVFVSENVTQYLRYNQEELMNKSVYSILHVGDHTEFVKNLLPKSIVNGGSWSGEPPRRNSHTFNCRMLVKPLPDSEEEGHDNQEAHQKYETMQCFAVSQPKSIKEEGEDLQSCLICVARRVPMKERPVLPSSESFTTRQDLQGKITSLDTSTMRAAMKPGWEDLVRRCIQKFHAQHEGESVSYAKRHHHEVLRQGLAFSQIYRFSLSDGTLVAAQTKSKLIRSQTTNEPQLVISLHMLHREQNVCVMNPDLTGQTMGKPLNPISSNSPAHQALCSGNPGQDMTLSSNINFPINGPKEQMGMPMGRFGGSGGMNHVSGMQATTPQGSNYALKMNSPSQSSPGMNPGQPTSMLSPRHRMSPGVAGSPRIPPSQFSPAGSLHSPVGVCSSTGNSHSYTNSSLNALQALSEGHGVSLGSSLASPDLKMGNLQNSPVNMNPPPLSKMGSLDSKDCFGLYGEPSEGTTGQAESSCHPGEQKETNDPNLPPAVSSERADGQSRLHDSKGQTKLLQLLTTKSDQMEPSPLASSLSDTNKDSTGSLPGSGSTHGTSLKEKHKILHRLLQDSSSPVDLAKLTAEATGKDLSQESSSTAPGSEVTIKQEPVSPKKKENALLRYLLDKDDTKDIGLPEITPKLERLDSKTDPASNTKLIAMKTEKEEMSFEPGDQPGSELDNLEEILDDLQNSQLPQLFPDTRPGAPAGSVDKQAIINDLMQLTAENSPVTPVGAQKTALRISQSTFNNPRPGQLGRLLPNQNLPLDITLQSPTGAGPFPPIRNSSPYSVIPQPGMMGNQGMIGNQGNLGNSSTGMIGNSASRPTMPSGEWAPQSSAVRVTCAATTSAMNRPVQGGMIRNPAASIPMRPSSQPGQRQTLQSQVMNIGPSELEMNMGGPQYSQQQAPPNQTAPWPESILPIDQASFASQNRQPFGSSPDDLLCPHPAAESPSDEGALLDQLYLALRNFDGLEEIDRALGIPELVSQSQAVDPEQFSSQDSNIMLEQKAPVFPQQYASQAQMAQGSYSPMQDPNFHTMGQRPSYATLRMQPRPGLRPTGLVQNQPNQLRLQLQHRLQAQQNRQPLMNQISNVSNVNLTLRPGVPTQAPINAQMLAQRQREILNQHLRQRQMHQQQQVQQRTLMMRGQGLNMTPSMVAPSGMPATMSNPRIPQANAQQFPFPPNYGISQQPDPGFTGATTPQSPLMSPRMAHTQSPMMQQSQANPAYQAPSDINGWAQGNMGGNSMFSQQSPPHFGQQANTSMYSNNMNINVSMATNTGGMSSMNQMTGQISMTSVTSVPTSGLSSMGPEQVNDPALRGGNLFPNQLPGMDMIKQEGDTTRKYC

Substance	solubility change mitosis (log2) (HeLa Kyoto [1])	solubility in G1/S (log2) (HeLa Kyoto [2])
MGELCRRDSALTALDEETLWEMMESHRHRIVRCICPSRLTPYLRQAKVLCQLDEEEVLHSPRLTNSAMRAGHLLDLLKTRGKNGAIAFLESLKFHNPDVYTLVTGLQPDVDFSNFSGLMETSKLTECLAGAIGSLQEELNQEKGQKEVLLRRCQQLQEHLGLAETRAEGLHQLEADHSRMKREVSAHFHEVLRLKDEMLSLSLHYSNALQEKELAASRCRSLQEELYLLKQELQRANMVSSCELELQEQSLRTASDQESGDEELNRLKEENEKLRSLTFSLAEKDILEQSLDEARGSRQELVERIHSLRERAVAAERQREQYWEEKEQTLLQFQKSKMACQLYREKVNALQAQVCELQKERDQAYSARDSAQREISQSLVEKDSLRRQVFELTDQVCELRTQLRQLQAEPPGVLKQEARTREPCPREKQRLVRMHAICPRDDSDCSLVSSTESQLLSDLSATSSRELVDSFRSSSPAPPSQQSLYKRVAEDFGEEPWSFSSCLEIPEGDPGALPGAKAGDPHLDYELLDTADLPQLESSLQPVSPGRLDVSESGVLMRRRPARRILSQVTMLAFQGDALLEQISVIGGNLTGIFIHRVTPGSAADQMALRPGTQIVMVDYEASEPLFKAVLEDTTLEEAVGLLRRVDGFCCLSVKVNTDGYKRLLQDLEAKVATSGDSFYIRVNLAMEGRAKGELQVHCNEVLHVTDTMFQGCGCWHAHRVNSYTMKDTAAHGTIPNYSRAQQQLIALIQDMTQQCTVTRKPSSGGPQKLVRIVSMDKAKASPLRLSFDRGQLDPSRMEGSSTCFWAESCLTLVPYTLVRPHRPARPRPVLLVPRAVGKILSEKLCLLQGFKKCLAEYLSQEEYEAWSQRGDIIQEGEVSGGRCWVTRHAVESLMEKNTHALLDVQLDSVCTLHRMDIFPIVIHVSVNEKMAKKLKKGLQRLGTSEEQLLEAARQEEGDLDRAPCLYSSLAPDGWSDLDGLLSCVRQAIADEQKKVVWTEQSPR [CARD14]	0.0129	-0.00296
MGAAGSSALARFVLLAQSRPGWLGVAALGLTAVALGAVAWRRAWPTRRRRLLQQVGTVAQLWIYPVKSCKGVPVSEAECTAMGLRSGNLRDRFWLVINQEGNMVTARQEPRLVLISLTCDGDTLTLSAAYTKDLLLPIKTPTTNAVHKCRVHGLEIEGRDCGEATAQWITSFLKSQPYRLVHFEPHMRPRRPHQIADLFRPKDQIAYSDTSPFLILSEASLADLNSRLEKKVKATNFRPNIVISGCDVYAEDSWDELLIGDVELKRVMACSRCILTTVDPDTGVMSRKEPLETLKSYRQCDPSERKLYGKSPLFGQYFVLENPGTIKVGDPVYLLGQ [MARC1]	-0.0926	0.00278
NCOA2	-0.129	0.178
MASKRKSTTPCMVRTSQVVEQDVPEEVDRAKEKGIGTPQPDVAKDSWAAELENSSKENEVIEVKSMGESQSKKLQGGYECKYCPYSTQNLNEFTEHVDMQHPNVILNPLYVCAECNFTTKKYDSLSDHNSKFHPGEANFKLKLIKRNNQTVLEQSIETTNHVVSITTSGPGTGDSDSGISVSKTPIMKPGKPKADAKKVPKKPEEITPENHVEGTARLVTDTAEILSRLGGVELLQDTLGHVMPSVQLPPNINLVPKVPVPLNTTKYNSALDTNATMINSFNKFPYPTQAELSWLTAASKHPEEHIRIWFATQRLKHGISWSPEEVEEARKKMFNGTIQSVPPTITVLPAQLAPTKVTQPILQTALPCQILGQTSLVLTQVTSGSTTVSCSPITLAVAGVTNHGQKRPLVTPQAAPEPKRPHIAQVPEPPPKVANPPLTPASDRKKTKEQIAHLKASFLQSQFPDDAEVYRLIEVTGLARSEIKKWFSDHRYRCQRGIVHITSESLAKDQLAIAASRHGRTYHAYPDFAPQKFKEKTQGQVKILEDSFLKSSFPTQAELDRLRVETKLSRREIDSWFSERRKLRDSMEQAVLDSMGSGKKGQDVGAPNGALSRLDQLSGAQLTSSLPSPSPAIAKSQEQVHLLRSTFARTQWPTPQEYDQLAAKTGLVRTEIVRWFKENRCLLKTGTVKWMEQYQHQPMADDHGYDAVARKATKPMAESPKNGGDVVPQYYKDPKKLCEEDLEKLVTRVKVGSEPAKDCLPAKPSEATSDRSEGSSRDGQGSDENEESSVVDYVEVTVGEEDAISDRSDSWSQAAAEGVSELAESDSDCVPAEAGQA [ZHX2]	-0.0666	0.134
MEPRAAAAGEPEPPAASSSFQARLWKNLQLGVGRSKGGGGGRAGGPERRTADTPSPSPPPPVGTGNAPARGSGAGSRWSGFKKRKQVLDRVFSSSQPNLCCSSPEPLEPGGAGRAEQGSTLRRRIREHLLPAVKGPAAASGAAGGTPPGGRSPDSAPSSSSASSSLSSSPQPPPRGDRARDEGARRQGPGAHLCHQKSSSLPGTACLEQLLEPPPPPAEPARSPAESRAPETGEEHGSSQKIINTAGTSNAEVPLADPGMYQLDITLRRGQSLAARDRGGTSDPYVKFKIGGKEVFRSKIIHKNLNPVWEEKACILVDHLREPLYIKVFDYDFGLQDDFMGSAFLDLTQLELNRPTDVTLTLKDPHYPDHDLGIILLSVILTPKEGESRDVTMLMRKSWKRSSKELSENEVVGSYFSVKSLFWRTCGRPALPVLGFCRAELQNPYCKNVQFQTQSLRLSDLHRKSHLWRGIVSITLIEGRDLKAMDSNGLSDPYVKFRLGHQKYKSKIMPKTLNPQWREQFDFHLYEERGGVIDITAWDKDAGKRDDFIGRCQVDLSALSREQTHKLELQLEEGEGHLVLLVTLTASATVSISDLSVNSLEDQKEREEILKRYSPLRIFHNLKDVGFLQVKVIRAEGLMAADVTGKSDPFCVVELNNDRLLTHTVYKNLNPEWNKVFTFNIKDIHSVLEVTVYDEDRDRSADFLGKVAIPLLSIQNGEQKAYVLKNKQLTGPTKGVIYLEIDVIFNAVKASLRTLIPKEQKYIEEENRLSKQLLLRNFIRMKRCVMVLVNAAYYVNSCFDWDSPPRSLAAFVLFLFVVWNFELYMIPLVLLLLLTWNYFLIISGKDNRQRDTVVEDMLEDEEEEDDKDDKDSEKKGFINKIYAIQEVCVSVQNILDEVASFGERIKNTFNWTVPFLSWLAIVALCVFTAILYCIPLRYIVLVWGINKFTKKLRSPYAIDNNELLDFLSRVPSDVQVVQYQELKPDPSHSPYKRKKNNLG [MCTP1]	-0.196	0.0529
MAKSPENSTLEEILGQYQRSLREHASRSIHQLTCALKEGDVTIGEDAPNLSFSTSVGNEDARTAWPELQQSHAVNQLKDLLRQQADKESEVSPSRRRKMSPLRSLEHEETNMPTMHDLVHTINDQSQYIHHLEAEVKFCKEELSGMKNKIQVVVLENEGLQQQLKSQRQEETLREQTLLDASGNMHNSWITTGEDSGVGETSKRPFSHDNADFGKAASAGEQLELEKLKLTYEEKCEIEESQLKFLRNDLAEYQRTCEDLKEQLKHKEFLLAANTCNRVGGLCLKCAQHEAVLSQTHTNVHMQTIERLVKERDDLMSALVSVRSSLADTQQREASAYEQVKQVLQISEEANFEKTKALIQCDQLRKELERQAERLEKELASQQEKRAIEKDMMKKEITKEREYMGSKMLILSQNIAQLEAQVEKVTKEKISAINQLEEIQSQLASREMDVTKVCGEMRYQLNKTNMEKDEAEKEHREFRAKTNRDLEIKDQEIEKLRIELDESKQHLEQEQQKAALAREECLRLTELLGESEHQLHLTRQEKDSIQQSFSKEAKAQALQAQQREQELTQKIQQMEAQHDKTENEQYLLLTSQNTFLTKLKEECCTLAKKLEQISQKTRSEIAQLSQEKRYTYDKLGKLQRRNEELEEQCVQHGRVHETMKQRLRQLDKHSQATAQQLVQLLSKQNQLLLERQSLSEEVDRLRTQLPSMPQSDC [SDCCAG8]	0.0872	0.52
MAMVVSSWRDPQDDVAGGNPGGPNPAAQAARGGGGGAGEQQQQAGSGAPHTPQTPGQPGAPATPGTAGDKGQGPPGSGQSQQHIECVVCGDKSSGKHYGQFTCEGCKSFFKRSVRRNLTYTCRANRNCPIDQHHRNQCQYCRLKKCLKVGMRREAVQRGRMPPTQPNPGQYALTNGDPLNGHCYLSGYISLLLRAEPYPTSRYGSQCMQPNNIMGIENICELAARLLFSAVEWARNIPFFPDLQITDQVSLLRLTWSELFVLNAAQCSMPLHVAPLLAAAGLHASPMSADRVVAFMDHIRIFQEQVEKLKALHVDSAEYSCLKAIVLFTSDACGLSDAAHIESLQEKSQCALEEYVRSQYPNQPSRFGKLLLRLPSLRTVSSSVIEQLFFVRLVGKTPIETLIRDMLLSGSSFNWPYMSIQCS [NR2F1]	0.0314	-0.152
MDPVVLSYMDSLLRQSDVSLLDPPSWLNDHIIGFAFEYFANSQFHDCSDHVSFISPEVTQFIKCTSNPAEIAMFLEPLDLPNKRVVFLAINDNSNQAAGGTHWSLLVYLQDKNSFFHYDSHSRSNSVHAKQVAEKLEAFLGRKGDKLAFVEEKAPAQQNSYDCGMYVICNTEALCQNFFRQQTESLLQLLTPAYITKKRGEWKDLITTLAKK [SENP8]	-0.151	0.62
MNPQQQRMAAIGTDKELSDLLDFSAMFSPPVNSGKTRPTTLGSSQFSGSGIDERGGTTSWGTSGQPSPSYDSSRGFTDSPHYSDHLNDSRLGAHEGLSPTPFMNSNLMGKTSERGSFSLYSRDTGLPGCQSSLLRQDLGLGSPAQLSSSGKPGTAYYSFSATSSRRRPLHDSAALDPLQAKKVRKVPPGLPSSVYAPSPNSDDFNRESPSYPSPKPPTSMFASTFFMQDGTHNSSDLWSSSNGMSQPGFGGILGTSTSHMSQSSSYGNLHSHDRLSYPPHSVSPTDINTSLPPMSSFHRGSTSSSPYVAASHTPPINGSDSILGTRGNAAGSSQTGDALGKALASIYSPDHTSSSFPSNPSTPVGSPSPLTGTSQWPRPGGQAPSSPSYENSLHSLQSRMEDRLDRLDDAIHVLRNHAVGPSTSLPAGHSDIHSLLGPSHNAPIGSLNSNYGGSSLVASSRSASMVGTHREDSVSLNGNHSVLSSTVTTSSTDLNHKTQENYRGGLQSQSGTVVTTEIKTENKEKDENLHEPPSSDDMKSDDESSQKDIKVSSRGRTSSTNEDEDLNPEQKIEREKERRMANNARERLRVRDINEAFKELGRMCQLHLKSEKPQTKLLILHQAVAVILSLEQQVRERNLNPKAACLKRREEEKVSAVSAEPPTTLPGTHPGLSETTNPMGHM [TCF12]	-0.221	0.156
MAEGGGPEPGEQERRSSGPRPPSARDLQLALAELYEDEVKCKSSKSNRPKATVFKSPRTPPQRFYSSEHEYSGLNIVRPSTGKIVNELFKEAREHGAVPLNEATRASGDDKSKSFTGGGYRLGSSFCKRSEYIYGENQLQDVQILLKLWSNGFSLDDGELRPYNEPTNAQFLESVKRGEIPLELQRLVHGGQVNLDMEDHQDQEYIKPRLRFKAFSGEGQKLGSLTPEIVSTPSSPEEEDKSILNAVVLIDDSVPTTKIQIRLADGSRLIQRFNSTHRILDVRNFIVQSRPEFAALDFILVTSFPNKELTDESLTLLEADILNTVLLQQLK [UBXN2B]	0.053	0.562
MSRLEAKKPSLCKSEPLTTERVRTTLSVLKRIVTSCYGPSGRLKQLHNGFGGYVCTTSQSSALLSHLLVTHPILKILTASIQNHVSSFSDCGLFTAILCCNLIENVQRLGLTPTTVIRLNKHLLSLCISYLKSETCGCRIPVDFSSTQILLCLVRSILTSKPACMLTRKETEHVSALILRAFLLTIPENAEGHIILGKSLIVPLKGQRVIDSTVLPGILIEMSEVQLMRLLPIKKSTALKVALFCTTLSGDTSDTGEGTVVVSYGVSLENAVLDQLLNLGRQLISDHVDLVLCQKVIHPSLKQFLNMHRIIAIDRIGVTLMEPLTKMTGTQPIGSLGSICPNSYGSVKDVCTAKFGSKHFFHLIPNEATICSLLLCNRNDTAWDELKLTCQTALHVLQLTLKEPWALLGGGCTETHLAAYIRHKTHNDPESILKDDECTQTELQLIAEAFCSALESVVGSLEHDGGEILTDMKYGHLWSVQADSPCVANWPDLLSQCGCGLYNSQEELNWSFLRSTRRPFVPQSCLPHEAVGSASNLTLDCLTAKLSGLQVAVETANLILDLSYVIEDKN [MKKS]	0.46	-0.925

From the supplement of paper PMC5998384
